Data reported in patent US20230295310A1 (ABCELLERA BIOLOGICS, published 2023).

The binders below were run against human EGFR, C-terminal eGFP-tagged, on CHO-K1 cells (human, UniProt P00533 25-1210) (assay: cell-based or functional assay).

| EC50 CHO-K1 EGFR Low (nM); T cell activation bioassay, luciferase [nM] | EC50 CHO-K1 EGFR Med (nM); T cell activation bioassay, luciferase [nM] | Binder |
| --- | --- | --- |
| 0.0706 | 0.0122 | GOMP001_bsAb_043 (bispecific antibody, human IgG1, kappa, L234A L235A) heavy 1: QVQLVQSGAEVKKPGASVKVSCKASGYTFTSHWMHWVRKAPGQGLEWIGEFNPSNGRTNYNEEFKSKATMTVDTSTNTAYMELSSLRSEDTAVYYCASRDYDYDGRYFDYWGQGTLVTVSSASTKGPSVFPLAPSSKSTSGGTAALGCLVADYFPEPVTVSWNSGALTSGVHTFPAVLQSSGLYSLSSVVTVPSSSLGTQTYICNVNHKPSNTKVDEKVEPKSCDKTHTCPPCPAPEAAGGPSVFLFPPKPKDTLMISRTPEVTCVVVDVSHEDPEVKFNWYVDGVEVHNAKTKPREEQYNSTYRVVSVLTVLHQDWLNGKEYKCKVSNKALPAPIEKTISKAKGQPREPQVYTLPPSREEMTDNQVSLTCLVKGFYPSDIAVEWESNGQPENNYKTTPPVLMSDGSFFLASKLTVDKSRWQQGNVFSCSVMHEALHNHYTQKSLSLSPG light 1: RIQMTQSPSSLSASVGDRVTITCSASSSVTYMYWYQDKPGKAPKLLIYDTSNLASGVPSRFSGSGSGTDYTFTISSLQPEDIATYYCQQWSSHIFTFGQGTKVEIKRTVAAPSVFIFPPSDKQLKSGTARVVCLLNNFYPREAKVQWKVDNALQSGNSQESVTEQDSKDSTYSLSSTLTLSKADYEKHKVYACEVTHQGLSSPVTKSFNRGEC heavy 2: EVQLVESGGGLVKTGGSLRLSCVASGFSFKKAWMNWVRYAPGKGLEWVGRIKRNTDGGTADYAARVKGRFTLSRDDSKKTLFLQMNSLKTEDTAVYYCTTLDSSSYYVGYYYMDVWGRGTTVTVSSASTKGPSVFPLAPSSKSTSGGTAALGCLVKDYFPEPVTVSWNSGALTSGVHTFPAVLQSSGLYSLSSVVTVPSSSLGTQTYICNVNHKPSNTKVDKKVEPKSCDKTHTCPPCPAPEAAGGPSVFLFPPKPKDTLMISRTPEVTCVVVDVSHEDPEVKFNWYVDGVEVHNAKTKPREEQYNSTYRVVSVLTVLHQDWLNGKEYKCKVSNKALPAPIEKTISKAKGQPRRPRVYTLPPSREEMTKNQVSLVCLVKGFYPSDIAVEWESNGQPENNYKTTPPVLDSDGSFFLYSVLTVDKSRWQQGNVFSCSVMHEALHNHYTQKSLSLSPG light 2: DIQMTQSPSSVSASVGDRVTITCRASQDINNWLAWYQRKPGDAPKLLIYTASSLQSGVPSRFSGSGSGTDFTLTIGSLQPEDFATYYCQQAHSLPITFGQGTRLEIKRTVAAPSVFIFPPSDEQLKSGTASVVCLLNNFYPREAKVQWKVDNALQSGNSQESVTEQDSKDSTYSLSSTLTLSKADYEKHKVYACEVTHQGLSSPVTKSFNRGEC |
| 0.0136 | 0.0041 | GOMP001_bsAb_044 (bispecific antibody, human IgG1, kappa, L234A L235A) heavy 1: EVQLVESGGGLVKTGGSLRLSCVASGFSFKKAWMNWVRYAPGKGLEWVGRIKRNTDGGTADYAARVKGRFTLSRDDSKKTLFLQMNSLKTEDTAVYYCTTLDSSSYYVGYYYMDVWGRGTTVTVSSASTKGPSVFPLAPSSKSTSGGTAALGCLVKDYFPEPVTVSWNSGALTSGVHTFPAVLQSSGLYSLSSVVTVPSSSLGTQTYICNVNHKPSNTKVDKKVEPKSCDKTHTCPPCPAPEAAGGPSVFLFPPKPKDTLMISRTPEVTCVVVDVSHEDPEVKFNWYVDGVEVHNAKTKPREEQYNSTYRVVSVLTVLHQDWLNGKEYKCKVSNKALPAPIEKTISKAKGQPRRPRVYTLPPSREEMTKNQVSLVCLVKGFYPSDIAVEWESNGQPENNYKTTPPVLDSDGSFFLYSVLTVDKSRWQQGNVFSCSVMHEALHNHYTQKSLSLSPG light 1: DIQMTQSPSSVSASVGDRVTITCRASQDINNWLAWYQRKPGDAPKLLIYTASSLQSGVPSRFSGSGSGTDFTLTIGSLQPEDFATYYCQQAHSLPITFGQGTRLEIKRTVAAPSVFIFPPSDEQLKSGTASVVCLLNNFYPREAKVQWKVDNALQSGNSQESVTEQDSKDSTYSLSSTLTLSKADYEKHKVYACEVTHQGLSSPVTKSFNRGEC heavy 2: QVQLVQSGAEVKKPGASVKVSCKASGYTFTSHWMHWVRYAPGQGLEWIGEFNPSNGRTNYNEKFKSKATMTVDTSTNTAYMELSSLRSEDTAVYYCASRDYDYDGRYFDYWGRGTLVTVSSASTKGPSVFPLAPSSKSTSGGTAALGCLVKDYFPEPVTVSWNSGALTSGVHTFPAVLQSSGLYSLSSVVTVPSSSLGTQTYICNVNHKPSNTKVDKKVEPKSCDKTHTCPPCPAPEAAGGPSVFLFPPKPKDTLMISRTPEVTCVVVDVSHEDPEVKFNWYVDGVEVHNAKTKPREEQYNSTYRVVSVLTVLHQDWLNGKEYKCKVSNKALPAPIEKTISKAKGQPRRPRVYTLPPSREEMTKNQVSLVCLVKGFYPSDIAVEWESNGQPENNYKTTPPVLDSDGSFFLYSVLTVDKSRWQQGNVFSCSVMHEALHNHYTQKSLSLSPG light 2: DIQMTQSPSSLSASVGDRVTITCSASSSVTYMYWYQRKPGDAPKLLIYDTSNLASGVPSRFSGSGSGTDYTFTISSLQPEDIATYYCQQWSSHIFTFGQGTKVEIKRTVAAPSVFIFPPSDEQLKSGTASVVCLLNNFYPREAKVQWKVDNALQSGNSQESVTEQDSKDSTYSLSSTLTLSKADYEKHKVYACEVTHQGLSSPVTKSFNRGEC |

More lines, now with the values behind:

| Binder | EC50 CHO-K1 EGFR Low (nM); T cell activation bioassay, luciferase [nM] | EC50 CHO-K1 EGFR Med (nM); T cell activation bioassay, luciferase [nM] |
| --- | --- | --- |
| GOMP001_bsAb_041 (bispecific antibody, human IgG1, kappa, L234A L235A) heavy 1: QVQLVQSGAEVKKPGASVKVSCKASGYTFTSHWMHWVRKAPGQGLEWIGEFNPSNGRTNYNEEFKSKATMTVDTSTNTAYMELSSLRSEDTAVYYCASRDYDYDGRYFDYWGQGTLVTVSSASTKGPSVFPLAPSSKSTSGGTAALGCLVADYFPEPVTVSWNSGALTSGVHTFPAVLQSSGLYSLSSVVTVPSSSLGTQTYICNVNHKPSNTKVDEKVEPKSCDKTHTCPPCPAPEAAGGPSVFLFPPKPKDTLMISRTPEVTCVVVDVSHEDPEVKFNWYVDGVEVHNAKTKPREEQYNSTYRVVSVLTVLHQDWLNGKEYKCKVSNKALPAPIEKTISKAKGQPREPQVYTLPPSREEMTDNQVSLTCLVKGFYPSDIAVEWESNGQPENNYKTTPPVLMSDGSFFLASKLTVDKSRWQQGNVFSCSVMHEALHNHYTQKSLSLSPG light 1: RIQMTQSPSSLSASVGDRVTITCSASSSVTYMYWYQDKPGKAPKLLIYDTSNLASGVPSRFSGSGSGTDYTFTISSLQPEDIATYYCQQWSSHIFTFGQGTKVEIKRTVAAPSVFIFPPSDKQLKSGTARVVCLLNNFYPREAKVQWKVDNALQSGNSQESVTEQDSKDSTYSLSSTLTLSKADYEKHKVYACEVTHQGLSSPVTKSFNRGEC heavy 2: EVQLVESGGGLVKTGGSLRLSCVASGFSFKKAWMNWVRYAPGKGLEWVGRIKRNTDGGPADYAARVKGRFTLSRDDSKKTLYLQMNSLKTEDTAVYYCTTLDSSSWYVGYYYMDVWGRGTTVTVSSASTKGPSVFPLAPSSKSTSGGTAALGCLVKDYFPEPVTVSWNSGALTSGVHTFPAVLQSSGLYSLSSVVTVPSSSLGTQTYICNVNHKPSNTKVDKKVEPKSCDKTHTCPPCPAPEAAGGPSVFLFPPKPKDTLMISRTPEVTCVVVDVSHEDPEVKFNWYVDGVEVHNAKTKPREEQYNSTYRVVSVLTVLHQDWLNGKEYKCKVSNKALPAPIEKTISKAKGQPRRPRVYTLPPSREEMTKNQVSLVCLVKGFYPSDIAVEWESNGQPENNYKTTPPVLDSDGSFFLYSVLTVDKSRWQQGNVFSCSVMHEALHNHYTQKSLSLSPG light 2: DIQMTQSPSSVSASVGDRVIITCRASQDINNWLAWYLRRPGDAPKLLIYAASSLQSGVPSRFSGSGSGTDFTLTIGSLQPEDFATYYCQQAHSLPITFGQGTRLEIQRTVAAPSVFIFPPSDEQLKSGTASVVCLLNNFYPREAKVQWKVDNALQSGNSQESVTEQDSKDSTYSLSSTLTLSKADYEKHKVYACEVTHQGLSSPVTKSFNRGEC | 0.297 | 0.022 |
| GOMP001_bsAb_042 (bispecific antibody, human IgG1, kappa, L234A L235A) heavy 1: EVQLVESGGGLVKTGGSLRLSCVASGFSFKKAWMNWVRYAPGKGLEWVGRIKRNTDGGPADYAARVKGRFTLSRDDSKKTLYLQMNSLKTEDTAVYYCTTLDSSSWYVGYYYMDVWGRGTTVTVSSASTKGPSVFPLAPSSKSTSGGTAALGCLVKDYFPEPVTVSWNSGALTSGVHTFPAVLQSSGLYSLSSVVTVPSSSLGTQTYICNVNHKPSNTKVDKKVEPKSCDKTHTCPPCPAPEAAGGPSVFLFPPKPKDTLMISRTPEVTCVVVDVSHEDPEVKFNWYVDGVEVHNAKTKPREEQYNSTYRVVSVLTVLHQDWLNGKEYKCKVSNKALPAPIEKTISKAKGQPRRPRVYTLPPSREEMTKNQVSLVCLVKGFYPSDIAVEWESNGQPENNYKTTPPVLDSDGSFFLYSVLTVDKSRWQQGNVFSCSVMHEALHNHYTQKSLSLSPG light 1: DIQMTQSPSSVSASVGDRVIITCRASQDINNWLAWYLRRPGDAPKLLIYAASSLQSGVPSRFSGSGSGTDFTLTIGSLQPEDFATYYCQQAHSLPITFGQGTRLEIQRTVAAPSVFIFPPSDEQLKSGTASVVCLLNNFYPREAKVQWKVDNALQSGNSQESVTEQDSKDSTYSLSSTLTLSKADYEKHKVYACEVTHQGLSSPVTKSFNRGEC heavy 2: QVQLVQSGAEVKKPGASVKVSCKASGYTFTSHWMHWVRYAPGQGLEWIGEFNPSNGRTNYNEKFKSKATMTVDTSTNTAYMELSSLRSEDTAVYYCASRDYDYDGRYFDYWGRGTLVTVSSASTKGPSVFPLAPSSKSTSGGTAALGCLVKDYFPEPVTVSWNSGALTSGVHTFPAVLQSSGLYSLSSVVTVPSSSLGTQTYICNVNHKPSNTKVDKKVEPKSCDKTHTCPPCPAPEAAGGPSVFLFPPKPKDTLMISRTPEVTCVVVDVSHEDPEVKFNWYVDGVEVHNAKTKPREEQYNSTYRVVSVLTVLHQDWLNGKEYKCKVSNKALPAPIEKTISKAKGQPRRPRVYTLPPSREEMTKNQVSLVCLVKGFYPSDIAVEWESNGQPENNYKTTPPVLDSDGSFFLYSVLTVDKSRWQQGNVFSCSVMHEALHNHYTQKSLSLSPG light 2: DIQMTQSPSSLSASVGDRVTITCSASSSVTYMYWYQRKPGDAPKLLIYDTSNLASGVPSRFSGSGSGTDYTFTISSLQPEDIATYYCQQWSSHIFTFGQGTKVEIKRTVAAPSVFIFPPSDEQLKSGTASVVCLLNNFYPREAKVQWKVDNALQSGNSQESVTEQDSKDSTYSLSSTLTLSKADYEKHKVYACEVTHQGLSSPVTKSFNRGEC | 0.0439 | 0.00223 |
